Data on seven molecules can be found in US20250154215A1, “PHARMACEUTICAL COMPOSITION FOR TREATING COLITIS OR COLORECTAL CANCER COMPRISING COLON-TARGETED S100A8/A9-DERIVED SPECIFIC PEPTIDE” (Industry-University Cooperation Foundation Hanyang …, priority 2023, published 2025).

Data set [1] can be described thus: The results of in vitro plasma stability, microsomal stability, CYP inhibition and PK profile of S100A8/A9 peptides and rCT-S100A8/A9 proteins. To be noted: mouse, plasma, ip, 1 mg/kg. The procedure: Table printed on a drawing sheet, Fig. 5B
Title: The results of in vitro plasma stability, microsomal stability, CYP inhibition and PK profile of S100A8/A9 peptides and rCT-S100A8/A9 proteins
The patent's description of the figure: FIGS. 5A and 5B show the drug-like properties of rCT-S100A8/A9. […] Bacteria-purified 6×His-rCT-S100A8/9, rVehicle or rCT was analyzed by Coomassie staining or IB using αHis (bottom, left). BMDMs were incubated with rVehicle, rCT, or rCT-S100A8/9 for the indicated times and at the indicated concentrations, and then cell viability was measured by MTT assay (bottom, right). […] HLM, human liver microsomes; CYP, cytochrome P450. aTmax, arrival time; AUClast, total area under the plasma concentration-time curve from time 0 to the time of the last measurement; Cmax, maximum plasma concentration;
First reader's note: All values were measured after ip dosing of 1 mg/kg in mice (n = 5); the footnote for the raised a is not printed on the sheet, and the title stands once above both tables.

For data set [2], the system named is OxaR CRC cells (HT29, HCT116 and SW480). The data set can be described thus: WST-8-based cell viability assay in parental and drug-resistant CRC cell lines. To be noted: HT29, HCT116, SW480 OxaR; 24 hours. An excerpt:
To establish a CRC cell model resistant to oxaliplatin, doxorubicin, or 5-FU, HT29, HT116, and SW480 cells were exposed to progressively increasing concentrations of oxaliplatin, doxorubicin, or 5-FU. The established oxaliplatin, doxorubicin, and 5-FU resistant cells were named OxaR, DoxR, and 5-FuR cells, respectively.
To confirm the inhibitory effect of rCT-S100A8/A9 on oxaliplatin resistance, the present inventors performed a water-soluble tetrazolium-8 (WST-8)-based cell viability assay using parental cells of three CRC cell lines, HT29, HCT-116 and SW480, and their corresponding oxaliplatin-resistant (OxaR) cell lines. OxaR CRC cells (HT29, HCT116 and SW480) were established by long-term exposure of CRC cells to oxaliplatin as described in Example 1.
(In general: Tetrazolium assays rely on reduction of a dye to a coloured formazan, in cell work by metabolically active cells.)

Data set [3] deals with T1, endogenous TLR4 of mouse BMDMs and mouse colon (mouse, UniProt Q9QUK6 26-835).
T1 construct: whole, on cells; Endogenous protein, immunoprecipitated with αTLR4 from BMDM or colon lysates; also called toll-like receptor 4
T1 sequence (looked up): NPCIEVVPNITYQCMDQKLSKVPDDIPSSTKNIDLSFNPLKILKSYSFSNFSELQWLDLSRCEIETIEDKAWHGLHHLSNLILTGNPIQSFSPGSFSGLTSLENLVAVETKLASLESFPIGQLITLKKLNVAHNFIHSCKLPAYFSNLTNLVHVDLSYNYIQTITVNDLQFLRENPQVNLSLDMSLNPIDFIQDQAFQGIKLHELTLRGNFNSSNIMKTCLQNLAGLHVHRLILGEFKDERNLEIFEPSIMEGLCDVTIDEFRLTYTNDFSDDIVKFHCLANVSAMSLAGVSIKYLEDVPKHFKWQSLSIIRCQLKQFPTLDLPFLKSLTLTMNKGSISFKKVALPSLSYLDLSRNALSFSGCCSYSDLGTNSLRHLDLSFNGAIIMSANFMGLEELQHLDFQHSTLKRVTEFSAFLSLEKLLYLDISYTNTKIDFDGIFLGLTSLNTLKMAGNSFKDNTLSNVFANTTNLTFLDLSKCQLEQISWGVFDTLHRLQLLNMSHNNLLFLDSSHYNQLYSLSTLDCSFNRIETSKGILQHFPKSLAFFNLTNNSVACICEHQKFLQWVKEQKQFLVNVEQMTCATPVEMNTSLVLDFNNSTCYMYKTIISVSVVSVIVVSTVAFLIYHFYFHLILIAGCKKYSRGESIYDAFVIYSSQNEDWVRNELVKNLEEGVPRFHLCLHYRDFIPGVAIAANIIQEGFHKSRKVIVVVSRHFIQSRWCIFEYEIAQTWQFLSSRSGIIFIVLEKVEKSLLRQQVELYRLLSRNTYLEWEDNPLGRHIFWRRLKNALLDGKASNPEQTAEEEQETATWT
In words: co-IP from mouse colon lysates (IP αTLR4, IB αS100A8), FIG. 1D. The procedure:
(§1) The 293T cells were used for immunoprecipitation (IP) including αMyc, and then for immunoblotting (IB) including αHA or αHis. […] Bone marrow-derived macrophages (BMDMs) were incubated with rHA-S100A8 or rHis-S100A9 (5 μg/ml) for 10 minutes. The BMDMs were subjected to IP using αTLR4 (FIG. 1A, right) or αRAGE (FIG. 1B, right), and then subjected to IB using αHA, αHis, αTLR4, or αRAGE. The WCLs were used for IB including αHA, αHis, αTLR4, αRAGE, or αActin. In FIG. 1C, on the left, relative expression of S100A8 or S100A9 in colons of normal, acute colitis, chronic colitis, and colorectal cancer mice was determined, and biological replicates (n=10) were used for each condition. On the right, IB was performed on sera from normal, acute colitis, chronic colitis, and colorectal cancer mice using αS100A8 or αS100A9. Coomassie blue (CB)-stained gels show consistent loading of serum proteins. Data from 3 out of 10 samples is shown. […] The WCLs were used for IB including αS100A8, αS100A9, αTLR4, αRAGE, or αActin. Data is representative of seven independent experiments with similar results (FIGS. 1A-1D);
(§2) 293T, BMDMs, and THP-1 cells were treated as indicated and processed for analysis by GST pulldown, Western blotting, and co-IP analysis. For GST pulldown, 293T cells were harvested and lysed in an NP-40 buffer including a complete protease inhibitor cocktail (Roche, Basel, Switzerland). […]

Data set [4] concerns the target T2, endogenous RAGE of mouse BMDMs and mouse colon (mouse, UniProt Q62151 23-402).
T2 construct: whole, on cells; Endogenous protein, immunoprecipitated with αRAGE from BMDM or colon lysates; also called receptor for advanced glycation end products
The data set can be described thus: co-IP from colon lysates of acute colitis, chronic colitis and CRC mice (IP αRAGE, IB αS100A8), FIG. 1D. The procedure:
as §1, §2

For data set [5], the target named is T2, endogenous RAGE of mouse BMDMs and …. The data set can be described thus: co-IP in BMDMs incubated with recombinant protein at 5 µg/ml (IP αRAGE, IB αHA), FIG. 1B. How it is done:
as §1, §2

For data set [6], the target named is T1, endogenous TLR4 of mouse BMDMs and …. In words: co-IP in BMDMs incubated with recombinant protein at 5 µg/ml (IP αTLR4, IB αHA), FIG. 1A. The procedure:
as §1, §2

Data set [7] has as its target T2, endogenous RAGE of mouse BMDMs and …. The data set can be described thus: co-IP in BMDMs incubated with recombinant protein at 5 µg/ml (IP αRAGE, IB αHis), FIG. 1B. The procedure:
as §1, §2

Data set [8] addresses T1, endogenous TLR4 of mouse BMDMs and …. In words: co-IP in BMDMs incubated with recombinant protein at 5 µg/ml (IP αTLR4, IB αHis), FIG. 1A. The procedure:
as §1, §2

The next data set relates to TLR4 or RAGE. The data set can be described thus: Co-IP of recombinant S100A8 or S100A9 with endogenous TLR4 or RAGE in BMDMs. It counts as binding, mouse. To be noted: 5 μg/ml, 10 minutes. How it is done:
293T, BMDMs, and THP-1 cells were treated as indicated and processed for analysis by GST pulldown, Western blotting, and co-IP analysis. For GST pulldown, 293T cells were harvested and lysed in an NP-40 buffer including a complete protease inhibitor cocktail (Roche, Basel, Switzerland). After centrifugation, the supernatant was pre-cleared using protein A/G beads for two hours at 4° C. The pre-cleared lysates were mixed with a 50% slurry of glutathione-conjugated Sepharose beads (Amersham Biosciences, Amersham, UK), and binding reactions were performed for four hours at 4° C. by incubating the lysates at 4° C. The precipitate was extensively washed with a lysis buffer. Proteins bound to the glutathione beads were eluted by boiling for five minutes in a sodium dodecyl sulfate (SDS) loading buffer. For IP, cells were harvested and lysed in an NP-40 buffer supplemented with a complete protease inhibitor cocktail (Roche, Switzerland). […] For immunoblotting (IB), polypeptides were analyzed by SDS-polyacrylamide gel electrophoresis and transferred to polyvinylidene difluoride (PVDF) membranes (Bio-Rad, Hercules, CA, USA). […] Antibody binding was visualized by chemiluminescence (ECL; Millipore, Burlington, MA, USA) and detected using a Vilber chemiluminescence analyzer (Fusion SL 3; Vilber Lourmat). […]

For data set [9], the target named is T1, endogenous TLR4 of mouse BMDMs and …. The data set can be described thus: co-IP from colon lysates of acute colitis, chronic colitis and CRC mice (IP αTLR4, IB αS100A9), FIG. 1D. The procedure: as §1, §2
Data set [10] deals with T2, endogenous RAGE of mouse BMDMs and …. The data set can be described thus: co-IP from colon lysates of acute colitis, chronic colitis and CRC mice (IP αRAGE, IB αS100A9), FIG. 1D. How it is done:
as §1, §2

No end group written: not given here.

T2 sequence (Q62151 23-402): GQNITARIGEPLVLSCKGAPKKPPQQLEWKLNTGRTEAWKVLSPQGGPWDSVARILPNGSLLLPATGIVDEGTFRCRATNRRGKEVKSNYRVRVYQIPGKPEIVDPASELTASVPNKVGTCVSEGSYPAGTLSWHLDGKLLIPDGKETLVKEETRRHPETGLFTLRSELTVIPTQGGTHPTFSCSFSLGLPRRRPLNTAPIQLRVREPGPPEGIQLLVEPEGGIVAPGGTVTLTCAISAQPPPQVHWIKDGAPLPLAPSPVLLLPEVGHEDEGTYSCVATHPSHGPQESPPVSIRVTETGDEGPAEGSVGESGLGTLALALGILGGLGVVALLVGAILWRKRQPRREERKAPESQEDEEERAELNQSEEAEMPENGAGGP

Regarding “FLVIKGGAHKSHKGGITIITFGGGHHGG [S100A8/A9]”, in [1] (read-out: PK parameters (ip, 1 mg/kg, mice (n = 5))^a | Cmax), the Cmax stood at 102 ± 41.2 ng/mL. In addition, the half-life in data set [1] (read-out: PK parameters (ip, 1 mg/kg, mice (n = 5))^a | T1/2 (converted)) is 25.2 ± 30.6 min.

Turning to `O=C1[O][Pt]2([NH][C@@H]3CCCC[C@H]3[NH]2)[O]C1=O` [oxaliplatin, reference compound], the “cell viability of OxaR CRC cells” value in data set [2] is recorded as “significant resistance to oxaliplatin treatment”.

B1: endogenous mouse S100A8 (ligand, UniProt P27005 2-89, looked up)
chain: PSELEKALSNLIDVYHNYSNIQGNHHALYKNDFKKMVTTECPQFVQNINIENLFRELDINSDNAINFEEFLAMVIKVGVASHKDSHKE
notes: Endogenous protein detected with αS100A8 in co-immunoprecipitates
Regarding B1, the binding result in data set [3] and in data set [4] was “binds” each time.

B2: rHA-mS100A8 (ligand)
chain: B1 chain
notes: Recombinant protein added to BMDMs at 5 µg/ml; also called rHA-S100A8; rS100A8; not shown: HA tag
Regarding B2, the binding result in [5] and in data set [6] was “binds” each time.

B3: rHis-mS100A9 (ligand)
chain: ANKAPSQMERSITTIIDTFHQYSRKEGHPDTLSKKEFRQMVEAQLATFMKKEKRNEALINDIMEDLDTNQDNQLSFEECMMLMAKLIFACHEKLHENNPRGHGHSHGKGCGK
notes: Recombinant protein added to BMDMs at 5 µg/ml; also called rHis-S100A9; rS100A9; not shown: His tag
Take B3: the binding result in data set [7] and in [8] was “binds” in each case.

B4: rHis-mS100A9: recombinant His-tagged S100A9 protein (protein)
chain: B3 chain
modifications: left off: small tags and cut ends
notes: recombinant His-tagged S100A9 protein
Regarding B4, the “binding to PRRs (TLR4 and RAGE)” value in the data set on TLR4 or RAGE was “stronger binding to PRRs (TLR4 and RAGE) than rHA-mS100A8”.

B5: endogenous mouse S100A9 (ligand, UniProt P31725 2-113, looked up)
chain: B3 chain
notes: Endogenous protein detected with αS100A9 in co-immunoprecipitates
Take B5: the binding result in [9] and in [10] was “binds” each time.
